Laboratory results taken from US20250019427A1 (BYOMASS, published 2025).

T1: GDF15 (Homo sapiens (Human), UniProt Q99988 30-308)
T1 sequence: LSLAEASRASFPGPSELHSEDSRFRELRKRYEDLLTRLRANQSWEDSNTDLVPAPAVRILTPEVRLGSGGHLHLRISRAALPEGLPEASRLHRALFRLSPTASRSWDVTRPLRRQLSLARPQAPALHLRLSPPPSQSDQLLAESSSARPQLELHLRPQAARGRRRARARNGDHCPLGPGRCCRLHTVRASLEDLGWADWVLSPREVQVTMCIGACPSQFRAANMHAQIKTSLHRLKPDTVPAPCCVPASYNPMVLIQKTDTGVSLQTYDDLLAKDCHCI

T2: Cyno GDF15 Fc (cyno, UniProt G7PWZ3 193-308)
T2 construct: also called cyno GDF15-Fc fusion
T2 sequence: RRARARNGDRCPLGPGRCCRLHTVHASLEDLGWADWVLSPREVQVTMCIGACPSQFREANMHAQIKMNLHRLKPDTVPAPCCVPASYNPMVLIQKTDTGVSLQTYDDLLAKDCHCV

T3: Mouse GDF15 Fc (mouse, UniProt Q9Z0J7 189-303, limits assumed)
T3 construct: also called mouse GDF15Fc fusion
T3 sequence (looked up): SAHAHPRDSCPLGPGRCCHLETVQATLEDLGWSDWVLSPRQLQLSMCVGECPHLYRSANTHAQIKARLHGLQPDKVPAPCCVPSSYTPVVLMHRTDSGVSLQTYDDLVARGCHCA

T4: GDF10 (UniProt P55107 369-478)
T4 sequence (looked up): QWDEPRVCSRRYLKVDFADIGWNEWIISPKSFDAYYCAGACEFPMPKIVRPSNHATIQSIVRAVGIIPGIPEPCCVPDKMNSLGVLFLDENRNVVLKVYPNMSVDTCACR

T5: Human Activin A Fc (human, UniProt P08476 311-426)
T5 sequence (looked up): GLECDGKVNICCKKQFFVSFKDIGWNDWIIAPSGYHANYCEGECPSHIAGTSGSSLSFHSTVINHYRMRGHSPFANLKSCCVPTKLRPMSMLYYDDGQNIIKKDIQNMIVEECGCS

T6: Human Activin B (human, UniProt P09529 293-407)
T6 construct: Also used for the Activin B ligand of the ActRIIB/SMAD reporter assay, where the species is not restated
T6 sequence (looked up): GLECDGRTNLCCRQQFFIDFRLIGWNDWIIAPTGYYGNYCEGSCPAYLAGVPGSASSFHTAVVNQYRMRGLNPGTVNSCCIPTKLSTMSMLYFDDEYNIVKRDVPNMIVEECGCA

T7: Human BMP9 (human, UniProt Q9UK05 320-429)
T7 sequence (looked up): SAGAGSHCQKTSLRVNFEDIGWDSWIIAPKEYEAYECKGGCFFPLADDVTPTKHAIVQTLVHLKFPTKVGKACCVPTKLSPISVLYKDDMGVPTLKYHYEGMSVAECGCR

T8: Human BMP10 (human, UniProt O95393 317-424)
T8 sequence (looked up): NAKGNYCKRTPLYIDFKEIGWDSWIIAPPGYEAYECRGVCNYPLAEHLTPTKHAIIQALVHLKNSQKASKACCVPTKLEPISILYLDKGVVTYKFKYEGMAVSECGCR


What was measured:
[1] = target: T1, GDF15; test: cell-based or functional assay
[2] = target: T2, Cyno GDF15 Fc; test: Octet BLI, Fab monovalent
[3] = target: T3, Mouse GDF15 Fc; test: Octet BLI, Fab monovalent
[4] = target: GDF8 (UniProt O14793 267-375); test: Octet BLI, IgG on tip, avid
[5] = target: T4, GDF10; test: Octet BLI, IgG on tip, avid
[6] = target: T9, GDF11 (UniProt O95390 299-407); test: Octet BLI, IgG on tip, avid
T9 construct: Also the GDF-11 ligand of the ActRIIB/SMAD reporter assay

[7] = target: T5, Human Activin A Fc; test: Octet BLI, IgG on tip, avid
[8] = target: T6, Human Activin B; test: Octet BLI, IgG on tip, avid
[9] = target: T7, Human BMP9; test: Octet BLI, IgG on tip, avid
[10] = target: T8, Human BMP10; test: Octet BLI, IgG on tip, avid

T9 sequence (O95390 299-407 limits assumed): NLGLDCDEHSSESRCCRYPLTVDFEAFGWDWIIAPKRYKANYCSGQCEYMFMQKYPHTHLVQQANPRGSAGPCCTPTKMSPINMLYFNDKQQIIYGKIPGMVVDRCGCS

Binder	GDF15 GFRAL RET pERK Fab IC50 pM [1]	Kd [2] [nM]	Kd [3] [nM]	GDF15 - GFRAL RET pERK IC50 (pM) [1] [pM]	GDF15 - GFRAL-RET Luciferase IC50 (pM) [1] [pM]	binding result [4]	binding result [5]	binding result [6]	binding result [7]	binding result [8]	binding result [9]	binding result [10]
Clone M Fab (Fab, V domains shown, Fab format) VH: QVQLVQSGAEVKKPGASVKVSCKASGYTFDSYGINWVRQAPGQGLEWMGWISAYSGDTAYAQELQGRVTMTTDTSTSTAYMELRSLRSDDTAVYYCVRDTQYGGSPYWGQGTLVTVSS VL: EIVMTQSPATLSVSPGERATLSCRASQSVSSNLAWYQQKPGQAPRLLIYGASTRATGIPARFSGSGSGTEFTLTISSLQSEDFAVYYCQQYNNWPITFGGGTKVEIK	1370 pM	1.91	31.4	–	–	–	–	–	–	–	–	–
Clone K Fab (Fab, V domains shown, Fab format) VH: QVQLVQSGAEVKKPGASVKVSCKASGYTFTNEGISWVRQAPGQGLEWMGWISAYTADTFYAQKLQGRVTMTTDTSTSTAYMELRSLRSDDTAVYYCARTRHDTSGLRFDYWGQGTLVTVSS VL: DIQMTQSPSSVSASVGDRVTITCRASQGIDSWLAWYQQKPGKAPKLLIYAASSLQSGVPSRFSGSGSGTDFTLTISSLQPEDFATYYCQQVHSFPITFGGGTKVEIK	169 pM	2.4	333	–	–	–	–	–	–	–	–	–
Clone L Fab (Fab, V domains shown, Fab format) VH: QVQLVQSGAEVKKPGASVKVSCKASGYTFASYDIIWVRQAPGQGLEWMGWISALSGDTVYAQKLQGRVTMTTDTSTSTAYMELRSLRSDDTAVYYCARTRHDTSGIRFDYWGQGTLVTVSS VL: DIQMTQSPSSVSASVGDRVTITCRASQGIDSWLAWYQQKPGKAPKLLIYAASSLQSGVPSRFSGSGSGTDFTLTISSLQPEDFATYYCQQVHSFPITFGGGTKVEIK	2.1 µM	1.56	229	–	–	–	–	–	–	–	–	–
Clone J IgG (antibody, V domains shown, IgG format) VH: QVQLVQSGAEVKKPGASVKVSCKASGYTFTSYGINWVRQAPGQGLEWMGWIDAYSGSTNYAQKLQGRVTMTTDTSTSTAYMELRSLRSDDTAVYYCARGPGQYADVDVWGQGTMVTVSS VL: DIQMTQSPSSVSASVGDRVTITCRASQGISSWLAWYQQKPGKAPKLLIYAASSLQSGVPSRFSGSGSGTDFTLTISSLQPEDFATYYCQQANSFPITFGGGTKVEIKR	–	–	–	30.3	110	no binding (tested: 100 nM)	no binding (tested: 100 nM)	no binding (tested: 100 nM)	no binding (tested: 100 nM)	no binding (tested: 100 nM)	no binding (tested: 100 nM)	no binding (tested: 100 nM)
Clone P IgG (antibody, V domains shown, IgG format) VH: QVQLVQSGAEVKKPGATVKVSCKASGYTFDSYGIHWVRQAPGQGLEWMGWITAYSGDTVYAQKLQGRVTMTTDTSTSTAYMELRSLRSDDTAVYYCARESGQTSSALGPWGQGTLVTVSS VL: DIQMTQSPSSVSASVGDRVTITCRASQGISRWLAWYQQKPGKAPKLLIYAASSLQSGVPSRFSGSGSGTDFTLTISSLQPEDFATYYCQQGASFPLTFGGGTKVEIKR	–	–	–	35.6	–	no binding (tested: 100 nM)	no binding (tested: 100 nM)	no binding (tested: 100 nM)	no binding (tested: 100 nM)	no binding (tested: 100 nM)	no binding (tested: 100 nM)	no binding (tested: 100 nM)
